Results reported in paper PMC11098746 (2024).

Key:
ADP386 = test: AVEXIS screen signal:noise (double-corrected)
ADP381 = biological target: T1, ADP381; test: AVEXIS screen signal:noise (double-corrected)
T1 chain: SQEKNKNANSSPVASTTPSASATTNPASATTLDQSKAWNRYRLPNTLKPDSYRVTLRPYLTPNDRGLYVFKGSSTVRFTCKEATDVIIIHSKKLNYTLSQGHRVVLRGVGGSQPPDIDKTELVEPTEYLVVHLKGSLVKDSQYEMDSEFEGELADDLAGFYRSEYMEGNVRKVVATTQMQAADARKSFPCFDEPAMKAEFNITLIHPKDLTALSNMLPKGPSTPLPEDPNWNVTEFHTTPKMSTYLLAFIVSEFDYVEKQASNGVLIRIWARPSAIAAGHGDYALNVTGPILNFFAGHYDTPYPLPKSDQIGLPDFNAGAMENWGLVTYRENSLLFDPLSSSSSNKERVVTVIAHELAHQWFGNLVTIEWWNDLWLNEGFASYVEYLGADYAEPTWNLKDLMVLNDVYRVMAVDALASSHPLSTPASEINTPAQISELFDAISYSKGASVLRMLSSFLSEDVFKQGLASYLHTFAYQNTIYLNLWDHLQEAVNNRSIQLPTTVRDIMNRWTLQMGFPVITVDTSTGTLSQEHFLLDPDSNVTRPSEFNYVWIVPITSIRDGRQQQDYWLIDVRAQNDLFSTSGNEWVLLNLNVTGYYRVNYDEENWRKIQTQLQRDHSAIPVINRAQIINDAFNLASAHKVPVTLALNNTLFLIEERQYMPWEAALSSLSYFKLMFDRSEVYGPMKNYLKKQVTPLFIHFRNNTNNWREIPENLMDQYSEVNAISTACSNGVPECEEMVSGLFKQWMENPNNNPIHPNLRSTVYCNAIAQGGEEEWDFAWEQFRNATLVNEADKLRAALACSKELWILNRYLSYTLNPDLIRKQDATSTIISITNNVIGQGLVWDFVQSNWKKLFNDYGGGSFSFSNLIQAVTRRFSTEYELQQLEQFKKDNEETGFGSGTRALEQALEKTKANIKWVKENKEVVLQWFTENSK

B1: ADP237 (protein)
chain: TKKKVSVSEINFDSAVDDVQWCGNNHMTVLVKTVKGRLYRSSDGGKIWTNIAGNLADKENNKADPSSNHMNEMTTVDLIMVNSVNKNIVLIIGNQKNHYISEDSGETFRLLNYQNKINFWQFHSTKTHWALVSSWTEACYSNDDNSGECMQTLSLTKDLGRTFQLIDIYVVQFNWGDKESHLEDTIYYTRHKNRNGHQQRFSGWSKDVDFVATHNFGKSVDVLVKQGNKFLISNGYIFVAKLNDVIKQTVNMMVSTDGGKTFNKANLPENIHEKSYTVLDTSEGSIMLHVNHGTSSEKINTGNVYISDASGLNYALSLPNNIRTSSGECEFDRVLSLDGVYIANFLDVNNEIKDEDLRFQNFKSAIEEDIAPFETNTEKRKKQYNKGKNEDAVRTVISFNKGGEWSYLKAPKVDSRGNKYECGDNCYLHLHGITNYHQYAPFYSIENAVGIIMGTGNVGSHLRYESDEVNTFLSRDGGVTWIEAHKGPYIYEYGDYGGLIVMADDLRKTNQIVFSWNEGQSWFDFELGQFSIDVDNIVAEPNSASVEFLVYGTRNDVGVLYHLDFNALGQPLCKGLWAADSVSSDYETWSPTSGNFNDKCILGRKITYTRRKQTSECFNGKDLKRTVDKKPCECTPEDYECETGFTRKIGSYECKPNDPTLTIEGCTSSSYFYANAYRKVPGDICVNGWVPEKVPVPCPSYAPFNKAAK
modifications: bait human Fc-tagged dimer; N-glycosylation sequons mutated in Plasmodium baits
B1 gave a binding score (ADP386) of 19.2 and a binding score (ADP381) of 8.67.
